Read-outs that look alike come from different tables or passages of the source.
B3: Cdc37 (human, full length), bacterially expressed (natural protein, UniProt Q16543 1-378, looked up)
chain: MVDYSVWDHIEVSDDEDETHPNIDTASLFRWRHQARVERMEQFQKEKEELDRGCRECKRKVAECQRKLKELEVAEGGKAELERLQAEAQQLRKEERSWEQKLEEMRKKEKSMPWNVDTLSKDGFSKSMVNTKPEKTEEDSEEVREQKHKTFVEKYEKQIKHFGMLRRWDDSQKYLSDNVHLVCEETANYLVIWCIDLEVEEKCALMEQVAHQTIVMQFILELAKSLKVDPRACFRQFFTKIKTADRQYMEGFNDELEAFKERVRGRAKLRIEKAMKEYEEEERKKRLGPGGLDPVEVYESLPEELQKCFDVKDVQMLQDAISKMDPTDAKYHMQRCIDSGLWVPNSKASEAKEGEEAGPGDPLLEAVPKTGDEKDVSV

Assays:
Cak1p = target: T1, Cak1p (Saccharomyces cerevisiae, UniProt P43568); experiment: isothermal titration calorimetry; type: binding
T1 sequence (P43568 1-368): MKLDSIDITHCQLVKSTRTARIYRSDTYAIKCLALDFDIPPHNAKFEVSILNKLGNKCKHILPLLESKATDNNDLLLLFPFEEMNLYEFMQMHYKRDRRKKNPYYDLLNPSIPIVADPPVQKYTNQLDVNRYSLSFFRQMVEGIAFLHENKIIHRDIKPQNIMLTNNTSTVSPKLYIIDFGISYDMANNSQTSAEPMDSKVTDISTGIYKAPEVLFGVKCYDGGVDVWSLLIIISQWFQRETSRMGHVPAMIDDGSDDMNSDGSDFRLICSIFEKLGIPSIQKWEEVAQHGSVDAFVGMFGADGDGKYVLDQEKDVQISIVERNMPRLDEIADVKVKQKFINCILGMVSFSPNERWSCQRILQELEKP

[1] = target: Cdc37 (human, full length), bacterially expressed (human) (UniProt Q16543); experiment: ITC
[2] = target: T2, Hsp90β, bacterially expressed (human, UniProt P08238 1-724); experiment: SEC
[3] = target: B3; experiment: SEC
[4] = target: T2, Hsp90β, bacterially expressed; experiment: SEC; remark: listed apart in the source
budding yeast Cdc37p = target: T3, budding yeast Cdc37p (budding yeast, UniProt P06101 1-506); experiment: SEC
T3 sequence (looked up): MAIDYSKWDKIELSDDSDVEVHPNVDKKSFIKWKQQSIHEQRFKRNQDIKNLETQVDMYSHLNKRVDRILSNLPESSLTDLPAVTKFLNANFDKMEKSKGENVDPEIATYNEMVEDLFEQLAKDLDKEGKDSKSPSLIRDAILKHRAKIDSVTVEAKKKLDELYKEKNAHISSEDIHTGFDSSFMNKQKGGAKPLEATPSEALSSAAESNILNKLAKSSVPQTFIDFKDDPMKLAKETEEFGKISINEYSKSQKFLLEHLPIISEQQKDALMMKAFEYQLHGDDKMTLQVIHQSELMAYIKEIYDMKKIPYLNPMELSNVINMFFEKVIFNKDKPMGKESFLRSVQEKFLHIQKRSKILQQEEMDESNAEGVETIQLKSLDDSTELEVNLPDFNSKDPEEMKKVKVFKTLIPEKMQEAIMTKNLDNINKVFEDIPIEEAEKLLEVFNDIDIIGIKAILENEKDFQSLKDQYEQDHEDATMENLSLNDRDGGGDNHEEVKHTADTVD

T2 sequence (P08238 whole entry): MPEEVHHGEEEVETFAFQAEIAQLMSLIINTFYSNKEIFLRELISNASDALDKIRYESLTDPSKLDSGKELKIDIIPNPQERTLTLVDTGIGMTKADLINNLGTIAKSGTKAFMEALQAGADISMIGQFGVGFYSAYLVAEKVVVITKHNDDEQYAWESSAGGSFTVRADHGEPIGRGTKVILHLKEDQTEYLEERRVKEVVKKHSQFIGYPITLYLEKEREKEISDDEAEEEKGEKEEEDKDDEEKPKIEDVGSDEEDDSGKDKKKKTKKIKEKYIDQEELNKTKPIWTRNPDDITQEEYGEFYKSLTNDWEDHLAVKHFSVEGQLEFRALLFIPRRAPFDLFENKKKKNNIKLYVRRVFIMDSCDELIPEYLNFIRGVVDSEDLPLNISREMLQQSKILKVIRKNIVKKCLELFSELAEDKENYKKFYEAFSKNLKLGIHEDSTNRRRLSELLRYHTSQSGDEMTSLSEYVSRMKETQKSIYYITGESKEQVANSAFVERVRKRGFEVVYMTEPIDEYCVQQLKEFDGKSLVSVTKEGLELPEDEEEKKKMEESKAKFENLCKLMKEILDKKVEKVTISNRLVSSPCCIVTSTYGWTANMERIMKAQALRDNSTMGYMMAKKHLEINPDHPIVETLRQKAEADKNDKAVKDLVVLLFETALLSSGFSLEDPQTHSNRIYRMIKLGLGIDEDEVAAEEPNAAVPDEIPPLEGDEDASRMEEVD

`NC1=N/C(=C2/CCNC(=O)c3[nH]ccc32)C(=O)N1` [debromohymenialdisine] was tested, and the Kd (Cak1p) was roughly 1700 nM.

In the case of “solubilised BRaf V600E kinase domain (sBRafV600E), bacterially expressed (from UniProt P15056 457-717) (domain or fragment)”, the Kd [1] is reported as 200 nM.

B1: Cdc37 phosphorylated on Ser13 (natural protein, human, UniProt Q16543 1-378, looked up)
chain: MVDYSVWDHIEVSDDEDETHPNIDTASLFRWRHQARVERMEQFQKEKEELDRGCRECKRKVAECQRKLKELEVAEGGKAELERLQAEAQQLRKEERSWEQKLEEMRKKEKSMPWNVDTLSKDGFSKSMVNTKPEKTEEDSEEVREQKHKTFVEKYEKQIKHFGMLRRWDDSQKYLSDNVHLVCEETANYLVIWCIDLEVEEKCALMEQVAHQTIVMQFILELAKSLKVDPRACFRQFFTKIKTADRQYMEGFNDELEAFKERVRGRAKLRIEKAMKEYEEEERKKRLGPGGLDPVEVYESLPEELQKCFDVKDVQMLQDAISKMDPTDAKYHMQRCIDSGLWVPNSKASEAKEGEEAGPGDPLLEAVPKTGDEKDVSV
modifications: phosphoserine at 13
B1: binds [2].

B2: BRaf kinase domain (wild-type, native; amino acids 433-726), Sf9 (domain or fragment, human, UniProt P15056 433-726, looked up)
chain: EDRNRMKTLGRRDSSDDWEIPDGQITVGQRIGSGSFGTVYKGKWHGDVAVKMLNVTAPTPQQLQAFKNEVGVLRKTRHVNILLFMGYSTKPQLAIVTQWCEGSSLYHHLHIIETKFEMIKLIDIARQTAQGMDYLHAKSIIHRDLKSNNIFLHEDLTVKIGDFGLATVKSRWSGSHQFEQLSGSILWMAPEVIRMQDKNPYSFQSDVYAFGIVLYELMTGQLPYSNINNRDQIIFMVGRGYLSPDLSKVRSNCPKAMKRLMAECLKKKRDERPLFPQILASIELLARSLPKIHR
B2: binds [3].

B3: binds [4].

B4: Cak1p, cyclin-dependent kinase activating kinase from budding yeast (enzyme, UniProt P43568 1-368, looked up)
chain: MKLDSIDITHCQLVKSTRTARIYRSDTYAIKCLALDFDIPPHNAKFEVSILNKLGNKCKHILPLLESKATDNNDLLLLFPFEEMNLYEFMQMHYKRDRRKKNPYYDLLNPSIPIVADPPVQKYTNQLDVNRYSLSFFRQMVEGIAFLHENKIIHRDIKPQNIMLTNNTSTVSPKLYIIDFGISYDMANNSQTSAEPMDSKVTDISTGIYKAPEVLFGVKCYDGGVDVWSLLIIISQWFQRETSRMGHVPAMIDDGSDDMNSDGSDFRLICSIFEKLGIPSIQKWEEVAQHGSVDAFVGMFGADGDGKYVLDQEKDVQISIVERNMPRLDEIADVKVKQKFINCILGMVSFSPNERWSCQRILQELEKP
B4: binds (budding yeast Cdc37p).

From article PMC5695660 (Nature chemical biology, 2013)
